Some results are limits rather than exact numbers.

Consider four molecules from US11771829B2, “Systems and methods for liquid injection” (Massachusetts Institute of Technology, priority 2019, dated 2023).

The nature of series [1]: In vivo swine pharmacokinetics after L-SOMA, subcutaneous or endoscopic gavage dosing. The method, then:
In vivo swine experiments were performed in which L-SOMA devices loaded with either an inactivated GLP-1 receptor agonist or fast acting insulin were prepared. L-SOMA dosing experiments were compared to subcutaneous dosing experiments and experiments where swine were dosed with the liquid formulation into the stomach lumen. Using an endoscope, L-SOMA devices were placed into the stomachs of swine and allowed to independently actuate. After 2 hours the devices were removed from the animal. Time 0 corresponds to the time at which the device was placed in the stomach and not the time that the device actuated. The swine dosed were partially fasted but contained a layer of gastric fluid and food approximately the same height as the L-SOMA capsule.
(§1) L-SOMA dosings were compared to subcutaneous or intramuscular dosings as positive controls. Using an endoscope, we placed L-SOMA devices into the stomachs of swine and allowed them to independently actuate. After 2 hours the devices were removed from the animal.
Insulin and GLP-1 generally have limited ability to traverse the stomach lining for systemic uptake when administered without a permeation enhancer or physical permeation enhancing device.

In another series the test system is heart rate. Conditions: swine; 0.24 mg; both intramuscular injection and L-SOMA groups. The method, then:
as §1

The test system of a further series is blood glucose. The series is described as follows: Blood glucose in swine after dosing. It is filed as in vivo. The method, then: as §1
The next series relates to swine stomach. The series can be described thus: Histology of swine stomach after L-SOMA injection. In kind it is in vivo. As to conditions: swine stomach after L-SOMA epinephrine injection. The method, then: as §1
The nature of series [2]: Liquid formulation stability, two weeks at 40° C. and 75% relative humidity. In kind it is physicochemical. The method, then:
FIGS. 53A-53B show liquid formulation stability, according to one set of embodiments. Human Insulin (HI) and Semaglutide (Sema) formulations were placed inside of either an L-SOMA or a glass vial apparatus and were subjected to a 40° C. and 75% relative humidity environment for two weeks. (a) Purity loss and (b) high molecular weight protein (HMWP) formation were then measured. (Error=SD, n=3 device replicates, **P<0.01, ***P<0.001).
Additionally, the purity loss for the liquid formulation was higher than the purity loss for the solid formulation we previously reported using in the SOMA system. Optimization of the L-SOMA storage system and loaded liquid formulation will be required to ensure long term stability of the filled drug.

With `CNC[C@H](O)c1ccc(O)c(O)c1` [epinephrine], the “uptake after endoscopic gavage (negative control)” value in series [1] (in vivo) is given as “negligible uptake”. Further, the “plasma exposure of drug observed after administration” value in series [1] (swine, in vivo) was at most 15 min. In the series on heart rate, the heart rate change entry is reported as “abrupt rise”. Further, the blood glucose change result with blood glucose (0.24 mg, both intramuscular injection and L-SOMA groups) is “abrupt rise”. For the same molecule, in the series on swine stomach, the “H&E staining: necrosis or adverse effects elicited by the drug” value is given as “no evidence of necrosis or adverse effects”.
Consider adalimumab, for which the “uptake after endoscopic gavage (negative control)” value in series [1] (in vivo) was “negligible uptake”. The “drug in blood plasma after dosing” value in series [1] (in vivo, sc) is recorded as “at least 3 days”.
Consider “recombinant human insulin: recombinant human insulin, 1 mg liquid dose”, for which, in series [1] (swine, L-SOMA dosed, 1 mg, two hour sampling period, n=8), the “bioavailability, range” value is 25%-81%. Besides, the “bioavailability, range” value in series [1] (swine, dosed subcutaneously, insulin, n=3) is recorded as 50.8%-66.2%. For the same molecule, in series [2], the “high molecular weight protein formation, L-SOMA system versus glass vial system” value is “greater” and the “purity loss, L-SOMA system versus glass vial system” value is “greater”. Moreover, the hypoglycemic onset result in the series with blood glucose (insulin 1 mg, L-SOMA (FIG. 47B) and subcutaneous (FIG. 47F)) is on record as “immediate hypoglycemic onset”.
Regarding semaglutide, in series [2], the “high molecular weight protein formation, L-SOMA system versus glass vial system” value was “greater” and the “purity loss, L-SOMA system versus glass vial system” value was “greater”.
